Reference: paper PMC11969024 (2025)

B1: peptide HD2 (from tick evasin EVA4) / CCL1 (biotinylated, synthetic) (parent complex)
chain 1: EEDDYTAYAPLTCYFT
chain 2: KSMQVPFSRCCFSFAEQEIPLRAILCYRNTSSICSNEGLIFKLKRGKEACALDTVGWVQRHRKMLRHCPSKRK

Variants of: B1

Row | Variant | enrichment
1 | chain 1 T12S | -1.12 log2 (difference from the parental peptide)
2 | chain 1 T12P | 0.359 log2 (difference from the parental peptide)
3 | chain 1 Y8V | -4.63 log2 (difference from the parental peptide)
4 | chain 1 A9E | 2.72 log2 (difference from the parental peptide)
5 | chain 1 L11A | -2.67 log2 (difference from the parental peptide)
6 | chain 1 Y8L | -7.27 log2 (difference from the parental peptide)
7 | chain 1 Y5L | -5.06 log2 (difference from the parental peptide)
8 | chain 1 A7F | -3.93 log2 (difference from the parental peptide)
9 | chain 1 T6C | -10.4 log2 (difference from the parental peptide)
10 | chain 1 C13S | -4.71 log2 (difference from the parental peptide)
11 | chain 1 A7N | -1.23 log2 (difference from the parental peptide)
12 | chain 1 D4I | -6.7 log2 (difference from the parental peptide)
13 | chain 1 A9Y | -5.89 log2 (difference from the parental peptide)
14 | chain 1 A7L | -2.16 log2 (difference from the parental peptide)
15 | chain 1 D4F | -6.41 log2 (difference from the parental peptide)
16 | chain 1 T6V | -5.45 log2 (difference from the parental peptide)
17 | chain 1 T12Y | 1.88 log2 (difference from the parental peptide)
18 | chain 1 F15A | 2.04 log2 (difference from the parental peptide)
19 | chain 1 T6F | -4.18 log2 (difference from the parental peptide)
20 | chain 1 A7M | 1.33 log2 (difference from the parental peptide)
21 | chain 1 A7H | -2.76 log2 (difference from the parental peptide)
22 | chain 1 F15N | -1.79 log2 (difference from the parental peptide)
23 | chain 1 Y14F | 0.0997 log2 (difference from the parental peptide)
24 | chain 1 T12V | -1.56 log2 (difference from the parental peptide)
25 | chain 1 C13G | -9.66 log2 (difference from the parental peptide)

Row | Variant | enrichment
26 | chain 1 D3E | 1.49 log2 (difference from the parental peptide)
27 | chain 1 T16C | 0.749 log2 (difference from the parental peptide)
28 | chain 1 E2H | -3.7 log2 (difference from the parental peptide)
29 | chain 1 T6E | 3.09 log2 (difference from the parental peptide)
30 | chain 1 T16F | -0.729 log2 (difference from the parental peptide)
31 | chain 1 L11Q | 1.31 log2 (difference from the parental peptide)
32 | chain 1 T6Q | 1.62 log2 (difference from the parental peptide)
33 | chain 1 Y8F | -0.41 log2 (difference from the parental peptide)
34 | chain 1 L11S | -4.97 log2 (difference from the parental peptide)
35 | chain 1 T12C | -5.86 log2 (difference from the parental peptide)
36 | chain 1 D4H | -7 log2 (difference from the parental peptide)
37 | chain 1 Y14I | -4.18 log2 (difference from the parental peptide)
38 | chain 1 E1G | -1.01 log2 (difference from the parental peptide)
39 | chain 1 Y14R | -7.32 log2 (difference from the parental peptide)
40 | chain 1 L11G | -8.48 log2 (difference from the parental peptide)
41 | chain 1 D3T | -2.84 log2 (difference from the parental peptide)
42 | chain 1 Y8M | -7.72 log2 (difference from the parental peptide)
43 | chain 1 E1R | -4.21 log2 (difference from the parental peptide)
44 | chain 1 Y14T | -6.17 log2 (difference from the parental peptide)
45 | chain 1 E2A | -1.98 log2 (difference from the parental peptide)
46 | chain 1 T6N | 0.938 log2 (difference from the parental peptide)
47 | chain 1 E1I | -1.54 log2 (difference from the parental peptide)
48 | chain 1 T16Q | 0.281 log2 (difference from the parental peptide)
49 | chain 1 D4P | -4.71 log2 (difference from the parental peptide)
50 | chain 1 T6I | -5.87 log2 (difference from the parental peptide)

Row | Variant | enrichment
51 | chain 1 C13N | -5.11 log2 (difference from the parental peptide)
52 | chain 1 D4L | -6.1 log2 (difference from the parental peptide)
53 | chain 1 T16L | -0.0976 log2 (difference from the parental peptide)
54 | chain 1 D4Y | -4.35 log2 (difference from the parental peptide)
55 | chain 1 E1T | -1.42 log2 (difference from the parental peptide)
56 | chain 1 C13P | -6.51 log2 (difference from the parental peptide)
57 | chain 1 E1D | 2.01 log2 (difference from the parental peptide)
58 | chain 1 A7I | -3.58 log2 (difference from the parental peptide)
59 | chain 1 Y14Q | -5.69 log2 (difference from the parental peptide)
60 | chain 1 C13V | -4.73 log2 (difference from the parental peptide)
61 | chain 1 A7E | 0.457 log2 (difference from the parental peptide)
62 | chain 1 T16G | 1.22 log2 (difference from the parental peptide)
63 | chain 1 F15E | -0.986 log2 (difference from the parental peptide)
64 | chain 1 T6Y | -1.82 log2 (difference from the parental peptide)
65 | chain 1 F15H | 2.15 log2 (difference from the parental peptide)
66 | chain 1 L11V | 3.09 log2 (difference from the parental peptide)
67 | chain 1 Y5I | -7.45 log2 (difference from the parental peptide)
68 | chain 1 E1Y | -0.577 log2 (difference from the parental peptide)
69 | chain 1 L11T | -0.173 log2 (difference from the parental peptide)
70 | chain 1 T16A | 1.5 log2 (difference from the parental peptide)
71 | chain 1 F15V | 2.71 log2 (difference from the parental peptide)
72 | chain 1 T12G | -9.53 log2 (difference from the parental peptide)
73 | chain 1 L11Y | 0.82 log2 (difference from the parental peptide)
74 | chain 1 T16S | 0.836 log2 (difference from the parental peptide)
75 | chain 1 T12W | 0.647 log2 (difference from the parental peptide)

Row | Variant | enrichment
76 | chain 1 T6G | 3.41 log2 (difference from the parental peptide)
77 | chain 1 P10A | -5.62 log2 (difference from the parental peptide)
78 | chain 1 F15L | 2.03 log2 (difference from the parental peptide)
79 | chain 1 F15C | -6.07 log2 (difference from the parental peptide)
80 | chain 1 T6W | 0.875 log2 (difference from the parental peptide)
81 | chain 1 T16E | 1.93 log2 (difference from the parental peptide)
82 | chain 1 F15W | -0.244 log2 (difference from the parental peptide)
83 | chain 1 Y5F | -4.11 log2 (difference from the parental peptide)
84 | chain 1 C13D | -7.39 log2 (difference from the parental peptide)
85 | chain 1 L11D | -8.31 log2 (difference from the parental peptide)
86 | chain 1 T16V | -0.26 log2 (difference from the parental peptide)
87 | chain 1 T6D | 4.62 log2 (difference from the parental peptide)
88 | chain 1 E1L | -1.81 log2 (difference from the parental peptide)
89 | chain 1 P10M | -6.14 log2 (difference from the parental peptide)
90 | chain 1 E1P | -3.07 log2 (difference from the parental peptide)
91 | chain 1 T6H | -1.17 log2 (difference from the parental peptide)
92 | chain 1 T16H | -0.232 log2 (difference from the parental peptide)
93 | chain 1 D3S | -3.39 log2 (difference from the parental peptide)
94 | chain 1 A9F | -5.95 log2 (difference from the parental peptide)
95 | chain 1 E1K | -5.3 log2 (difference from the parental peptide)
96 | chain 1 D3V | -3.25 log2 (difference from the parental peptide)
97 | chain 1 A7R | 2.51 log2 (difference from the parental peptide)
98 | chain 1 E2L | -2.22 log2 (difference from the parental peptide)
99 | chain 1 D3N | -2.85 log2 (difference from the parental peptide)
100 | chain 1 E1F | -2.45 log2 (difference from the parental peptide)

Row | Variant | enrichment
101 | chain 1 E1Q | -1.24 log2 (difference from the parental peptide)
102 | chain 1 D3W | -3.57 log2 (difference from the parental peptide)
103 | chain 1 D4N | -6.19 log2 (difference from the parental peptide)
104 | chain 1 T16P | 1.67 log2 (difference from the parental peptide)
105 | chain 1 T12N | 1.57 log2 (difference from the parental peptide)
106 | chain 1 L11I | 2.18 log2 (difference from the parental peptide)
107 | chain 1 L11C | -1.68 log2 (difference from the parental peptide)
108 | chain 1 T16W | -0.962 log2 (difference from the parental peptide)
109 | chain 1 C13A | -7.27 log2 (difference from the parental peptide)
110 | chain 1 F15T | 1.39 log2 (difference from the parental peptide)
111 | chain 1 Y8P | -6.09 log2 (difference from the parental peptide)
112 | chain 1 D3G | -3.36 log2 (difference from the parental peptide)
113 | chain 1 E2V | -1.95 log2 (difference from the parental peptide)
114 | chain 1 E2S | -2.78 log2 (difference from the parental peptide)
115 | chain 1 D3A | -2.56 log2 (difference from the parental peptide)
116 | chain 1 C13Y | -5.39 log2 (difference from the parental peptide)
117 | chain 1 T6P | -5.02 log2 (difference from the parental peptide)
118 | chain 1 P10Q | -4.62 log2 (difference from the parental peptide)
119 | chain 1 A9S | -1.71 log2 (difference from the parental peptide)
120 | chain 1 C13E | -6.35 log2 (difference from the parental peptide)
121 | chain 1 Y5W | 0.92 log2 (difference from the parental peptide)
122 | chain 1 Y14M | -4.74 log2 (difference from the parental peptide)
123 | chain 1 T16M | 0.0746 log2 (difference from the parental peptide)
124 | chain 1 E1H | -2.16 log2 (difference from the parental peptide)
125 | chain 1 L11F | -4.27 log2 (difference from the parental peptide)

Row | Variant | enrichment
126 | chain 1 Y14W | -0.649 log2 (difference from the parental peptide)
127 | chain 1 D4A | -7.31 log2 (difference from the parental peptide)
128 | chain 1 T12A | -2.04 log2 (difference from the parental peptide)
129 | chain 1 E1W | -2.32 log2 (difference from the parental peptide)
130 | chain 1 F15Y | 1.84 log2 (difference from the parental peptide)
131 | chain 1 D4W | -2.57 log2 (difference from the parental peptide)
132 | chain 1 A9M | -5.21 log2 (difference from the parental peptide)
133 | chain 1 F15K | -1.11 log2 (difference from the parental peptide)
134 | chain 1 D4S | -6.83 log2 (difference from the parental peptide)
135 | chain 1 T12I | -1.49 log2 (difference from the parental peptide)
136 | chain 1 Y14V | -4.97 log2 (difference from the parental peptide)
137 | chain 1 A7G | -2.66 log2 (difference from the parental peptide)
138 | chain 1 P10G | -5.87 log2 (difference from the parental peptide)
139 | chain 1 T16K | -1.01 log2 (difference from the parental peptide)
140 | chain 1 E2Q | -3.13 log2 (difference from the parental peptide)
141 | chain 1 E1M | -0.363 log2 (difference from the parental peptide)
142 | chain 1 Y14L | -6.02 log2 (difference from the parental peptide)
143 | chain 1 C13T | -4.75 log2 (difference from the parental peptide)
144 | chain 1 D3Y | -2.01 log2 (difference from the parental peptide)
145 | chain 1 T16I | -0.756 log2 (difference from the parental peptide)
146 | chain 1 C13R | -9.78 log2 (difference from the parental peptide)
147 | chain 1 T12E | -2.48 log2 (difference from the parental peptide)
148 | chain 1 D3I | -4.23 log2 (difference from the parental peptide)
149 | chain 1 D3F | -4 log2 (difference from the parental peptide)
150 | chain 1 P10L | -8.15 log2 (difference from the parental peptide)
